Laboratory results taken from the supplement of paper PMC10065799, “High-throughput profiling of sequence recognition by tyrosine kinases and SH2 domains using bacterial peptide display” (eLife, 2023).

What was measured:
AncSZ = experiment: phosphorylation enrichment, bacterial display (enrichment ratio); higher = better substrate or ligand; peptides without Tyr show the background
EPHB1 = EPHB1 (UniProt P54762); experiment: as above
EPHB2 = EPHB2 (UniProt P29323); experiment: as above
FGFR1 = FGFR1 (UniProt P11362); experiment: as above
FGFR3 = FGFR3 (UniProt P22607); experiment: as above
Fer (mouse) = experiment: as above
Fes = Fes (UniProt P07332); experiment: as above
Fyn = Fyn (UniProt P06241); experiment: as above
Hck = Hck (UniProt P08631); experiment: as above
Jak2 = Jak2 (UniProt O60674); experiment: as above
MERTK = MERTK (UniProt Q12866); experiment: as above
c-Abl (mouse) = experiment: as above
c-Src = experiment: as above
Grb2 SH2 = Grb2 SH2 (UniProt P62993); experiment: SH2 binding enrichment of the phosphorylated peptide, bacterial display (enrichment ratio); higher = better substrate or ligand; peptides without Tyr show the background
SHP2-C SH2 = experiment: as above
c-Src SH2 = experiment: as above
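For SH2 binding enrichment of the phosphorylated peptide, bacterial display in this document: peptide library displayed on the E. coli surface as eCPX fusions, selected cells deep-sequenced, score is each peptide's frequency after selection divided by its frequency in the input.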
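For phosphorylation enrichment, bacterial display in this document: 11-residue human phosphosite peptides and single-mutation variants displayed on the E. coli surface, counted by deep sequencing, each peptide's frequency after selection divided by its frequency in the unselected input library; frequency after pTyr selection over input frequency; kinase dosed for 20-30% of maximal phosphorylation in three min.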

Sequence of FGFR3 (P22607 whole entry, looked up): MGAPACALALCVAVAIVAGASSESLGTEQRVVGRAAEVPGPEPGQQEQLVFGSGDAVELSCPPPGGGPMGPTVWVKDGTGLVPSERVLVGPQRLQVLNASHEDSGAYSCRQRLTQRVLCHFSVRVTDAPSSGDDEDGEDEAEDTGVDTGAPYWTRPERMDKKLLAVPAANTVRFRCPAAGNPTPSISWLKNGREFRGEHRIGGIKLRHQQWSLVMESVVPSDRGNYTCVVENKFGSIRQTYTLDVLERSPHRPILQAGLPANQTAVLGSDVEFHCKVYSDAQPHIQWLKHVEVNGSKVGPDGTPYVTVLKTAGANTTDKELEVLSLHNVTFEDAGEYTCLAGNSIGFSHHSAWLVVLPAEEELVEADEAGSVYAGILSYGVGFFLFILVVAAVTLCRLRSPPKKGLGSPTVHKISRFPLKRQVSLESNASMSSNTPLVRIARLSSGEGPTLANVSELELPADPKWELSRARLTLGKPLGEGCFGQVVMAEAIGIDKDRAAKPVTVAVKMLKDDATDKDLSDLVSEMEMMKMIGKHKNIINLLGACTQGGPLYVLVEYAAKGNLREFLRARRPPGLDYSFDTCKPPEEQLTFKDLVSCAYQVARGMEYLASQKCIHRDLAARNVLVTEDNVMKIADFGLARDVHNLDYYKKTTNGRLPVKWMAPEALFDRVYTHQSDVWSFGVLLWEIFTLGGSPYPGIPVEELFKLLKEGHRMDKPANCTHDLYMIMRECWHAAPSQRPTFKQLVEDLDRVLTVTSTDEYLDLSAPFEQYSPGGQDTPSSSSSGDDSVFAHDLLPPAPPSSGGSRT
Sequence of EPHB2 (P29323 whole entry, looked up): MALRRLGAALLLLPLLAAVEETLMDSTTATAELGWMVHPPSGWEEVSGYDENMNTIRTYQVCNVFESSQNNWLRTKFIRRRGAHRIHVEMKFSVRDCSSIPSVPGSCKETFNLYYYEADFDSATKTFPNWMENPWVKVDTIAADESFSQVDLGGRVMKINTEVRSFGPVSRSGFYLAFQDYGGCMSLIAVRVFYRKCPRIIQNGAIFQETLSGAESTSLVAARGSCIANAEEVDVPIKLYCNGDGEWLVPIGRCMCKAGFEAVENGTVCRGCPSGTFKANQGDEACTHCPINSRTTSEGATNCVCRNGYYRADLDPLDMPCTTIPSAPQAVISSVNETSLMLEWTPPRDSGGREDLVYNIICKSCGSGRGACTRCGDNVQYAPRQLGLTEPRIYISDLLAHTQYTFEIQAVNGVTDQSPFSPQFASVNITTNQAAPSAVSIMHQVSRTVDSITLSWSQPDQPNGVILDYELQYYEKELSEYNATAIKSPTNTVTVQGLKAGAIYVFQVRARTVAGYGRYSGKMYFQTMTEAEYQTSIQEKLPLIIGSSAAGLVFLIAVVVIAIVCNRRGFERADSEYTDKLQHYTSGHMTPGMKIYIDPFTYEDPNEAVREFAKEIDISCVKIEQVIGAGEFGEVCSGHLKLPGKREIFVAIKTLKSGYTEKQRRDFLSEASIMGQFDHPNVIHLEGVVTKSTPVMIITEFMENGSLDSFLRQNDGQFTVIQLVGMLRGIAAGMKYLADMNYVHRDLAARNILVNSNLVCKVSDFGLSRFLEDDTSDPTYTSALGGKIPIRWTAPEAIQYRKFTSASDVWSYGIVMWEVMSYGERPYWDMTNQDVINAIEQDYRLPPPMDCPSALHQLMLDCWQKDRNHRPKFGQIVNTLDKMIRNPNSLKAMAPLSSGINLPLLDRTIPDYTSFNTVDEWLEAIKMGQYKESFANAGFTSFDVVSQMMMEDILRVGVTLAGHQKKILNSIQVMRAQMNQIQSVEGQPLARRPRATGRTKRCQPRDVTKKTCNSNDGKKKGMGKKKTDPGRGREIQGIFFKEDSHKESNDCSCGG
Sequence of Grb2 SH2 (P62993 whole entry, looked up): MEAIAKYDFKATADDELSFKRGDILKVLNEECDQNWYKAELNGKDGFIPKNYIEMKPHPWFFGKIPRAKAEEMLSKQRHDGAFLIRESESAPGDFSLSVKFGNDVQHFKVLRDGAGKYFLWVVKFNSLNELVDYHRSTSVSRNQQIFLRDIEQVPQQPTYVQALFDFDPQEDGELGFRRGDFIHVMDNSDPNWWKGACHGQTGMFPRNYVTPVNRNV
Sequence of FGFR1 (P11362 whole entry, looked up): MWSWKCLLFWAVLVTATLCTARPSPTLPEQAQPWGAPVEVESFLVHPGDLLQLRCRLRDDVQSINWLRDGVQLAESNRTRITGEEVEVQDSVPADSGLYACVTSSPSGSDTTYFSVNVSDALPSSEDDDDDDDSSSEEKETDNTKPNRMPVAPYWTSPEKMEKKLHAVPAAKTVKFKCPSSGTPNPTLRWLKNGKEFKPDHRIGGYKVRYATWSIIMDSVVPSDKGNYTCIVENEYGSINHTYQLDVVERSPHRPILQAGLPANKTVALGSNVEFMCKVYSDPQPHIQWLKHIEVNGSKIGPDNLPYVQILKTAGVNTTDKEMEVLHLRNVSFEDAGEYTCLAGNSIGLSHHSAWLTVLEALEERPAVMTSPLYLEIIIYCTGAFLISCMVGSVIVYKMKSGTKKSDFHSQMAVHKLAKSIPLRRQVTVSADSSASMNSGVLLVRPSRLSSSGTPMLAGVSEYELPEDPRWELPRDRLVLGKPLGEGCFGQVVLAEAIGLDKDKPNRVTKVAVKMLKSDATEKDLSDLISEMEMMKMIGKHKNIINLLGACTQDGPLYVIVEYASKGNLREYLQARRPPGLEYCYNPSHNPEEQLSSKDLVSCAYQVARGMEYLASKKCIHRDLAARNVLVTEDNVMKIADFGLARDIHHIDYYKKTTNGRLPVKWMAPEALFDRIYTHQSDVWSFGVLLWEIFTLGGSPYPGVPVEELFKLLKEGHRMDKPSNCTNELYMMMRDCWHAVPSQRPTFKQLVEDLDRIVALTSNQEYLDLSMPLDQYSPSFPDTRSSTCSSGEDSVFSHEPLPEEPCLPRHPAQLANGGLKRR
Sequence of Fes (P07332 whole entry, looked up): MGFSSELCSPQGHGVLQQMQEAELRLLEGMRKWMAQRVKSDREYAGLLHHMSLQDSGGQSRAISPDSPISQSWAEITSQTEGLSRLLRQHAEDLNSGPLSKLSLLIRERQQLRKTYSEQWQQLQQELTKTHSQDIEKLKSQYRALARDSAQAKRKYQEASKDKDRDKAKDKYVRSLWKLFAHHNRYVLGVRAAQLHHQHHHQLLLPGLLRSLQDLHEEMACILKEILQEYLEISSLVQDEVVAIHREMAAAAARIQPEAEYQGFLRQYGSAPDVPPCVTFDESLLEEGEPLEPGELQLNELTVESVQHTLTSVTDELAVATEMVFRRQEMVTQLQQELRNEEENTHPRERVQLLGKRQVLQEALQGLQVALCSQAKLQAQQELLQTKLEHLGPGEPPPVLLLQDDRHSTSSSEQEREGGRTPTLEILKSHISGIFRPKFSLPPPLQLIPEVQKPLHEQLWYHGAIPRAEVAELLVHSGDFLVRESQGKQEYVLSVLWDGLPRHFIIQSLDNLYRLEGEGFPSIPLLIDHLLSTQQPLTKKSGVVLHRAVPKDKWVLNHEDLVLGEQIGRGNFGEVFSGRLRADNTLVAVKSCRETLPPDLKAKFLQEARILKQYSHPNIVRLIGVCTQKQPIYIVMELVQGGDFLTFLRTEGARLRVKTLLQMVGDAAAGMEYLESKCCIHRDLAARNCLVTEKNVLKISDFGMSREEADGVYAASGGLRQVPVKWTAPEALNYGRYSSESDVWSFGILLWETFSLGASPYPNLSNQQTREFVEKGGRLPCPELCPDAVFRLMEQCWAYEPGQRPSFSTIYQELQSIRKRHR
Sequence of Fyn (P06241 whole entry, looked up): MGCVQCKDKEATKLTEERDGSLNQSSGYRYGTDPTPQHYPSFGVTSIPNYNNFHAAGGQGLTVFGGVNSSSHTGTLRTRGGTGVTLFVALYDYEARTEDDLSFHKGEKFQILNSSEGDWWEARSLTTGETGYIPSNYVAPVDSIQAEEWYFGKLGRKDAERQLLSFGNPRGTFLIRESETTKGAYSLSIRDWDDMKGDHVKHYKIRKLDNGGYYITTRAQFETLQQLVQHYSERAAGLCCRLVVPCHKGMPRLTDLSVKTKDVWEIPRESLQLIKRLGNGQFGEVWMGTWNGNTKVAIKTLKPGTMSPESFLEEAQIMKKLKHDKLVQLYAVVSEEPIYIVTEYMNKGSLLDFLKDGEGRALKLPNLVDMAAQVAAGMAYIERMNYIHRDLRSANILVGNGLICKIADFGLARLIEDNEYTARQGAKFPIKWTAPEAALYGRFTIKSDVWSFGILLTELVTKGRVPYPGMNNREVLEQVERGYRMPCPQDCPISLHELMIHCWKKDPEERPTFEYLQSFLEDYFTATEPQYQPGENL
Sequence of Hck (P08631 whole entry, looked up): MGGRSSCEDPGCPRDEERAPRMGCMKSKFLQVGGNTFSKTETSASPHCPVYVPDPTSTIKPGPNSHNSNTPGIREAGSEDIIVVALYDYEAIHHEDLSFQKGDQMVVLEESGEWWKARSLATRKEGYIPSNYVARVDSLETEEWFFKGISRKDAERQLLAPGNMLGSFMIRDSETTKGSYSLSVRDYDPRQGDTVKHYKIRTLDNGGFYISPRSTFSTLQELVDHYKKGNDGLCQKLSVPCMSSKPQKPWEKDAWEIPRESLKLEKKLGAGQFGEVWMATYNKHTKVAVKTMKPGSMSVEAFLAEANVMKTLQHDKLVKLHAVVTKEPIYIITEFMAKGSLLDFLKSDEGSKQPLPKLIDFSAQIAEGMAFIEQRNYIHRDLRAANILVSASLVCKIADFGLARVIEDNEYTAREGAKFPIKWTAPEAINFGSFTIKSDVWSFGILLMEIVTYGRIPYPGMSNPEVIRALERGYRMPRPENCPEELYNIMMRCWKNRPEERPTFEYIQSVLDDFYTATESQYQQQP

Sequence | phosphorylation enrichment (AncSZ) | phosphorylation enrichment (EPHB1) | phosphorylation enrichment (EPHB2) | phosphorylation enrichment (FGFR1) | phosphorylation enrichment (FGFR3) | phosphorylation enrichment (Fer (mouse)) | phosphorylation enrichment (Fes) | phosphorylation enrichment (Fyn) | phosphorylation enrichment (Hck) | phosphorylation enrichment (Jak2) | phosphorylation enrichment (MERTK) | phosphorylation enrichment (c-Abl (mouse)) | phosphorylation enrichment (c-Src) | SH2 binding enrichment (Grb2 SH2) | SH2 binding enrichment (SHP2-C SH2) | SH2 binding enrichment (c-Src SH2)
ETDPRYFDEEF [AKT1_Y437_T435P] | 1.36 | 0.625 | 0.604 | 0.548 | 0.787 | 0.6 | 1.31 | 0.565 | 0.611 | 1.29 | 0.483 | 0.886 | 0.563 | 0.946 | 0.501 | 0.507
ETDSEYVKLSK [C7orf57_Y70_A74S] | 1.01 | 0.524 | 0.63 | 0.516 | 0.667 | 0.499 | 1.13 | 0.533 | 0.604 | 1.01 | 0.435 | 0.695 | 0.451 | 1.1 | 0.588 | 0.753
ETESPYQELQG [TYROBP_Y91] | 1.24 | 0.624 | 0.646 | 0.91 | 0.834 | 0.673 | 1.39 | 0.775 | 0.9 | 1.3 | 0.669 | 0.83 | 1.52 | 0.635 | 0.543 | 0.61
ETLLFYGFRRS [POR_Y564_C566Y_YF] | 0.871 | 0.504 | 0.404 | 0.58 | 0.535 | 0.405 | 1.01 | 0.431 | 0.544 | 0.745 | 0.631 | 0.542 | 0.514 | 0.749 | 0.458 | 0.356
ETRWNYHFEVV [GCNT3_Y267_K266N] | 1.38 | 0.971 | 0.496 | 0.563 | 0.893 | 0.568 | 1.65 | 0.449 | 0.439 | 1.23 | 0.398 | 0.904 | 0.433 | 0.761 | 0.646 | 0.592
EVDETYVPKKF [ALB_Y521_E525K] | 0.947 | 0.685 | 0.372 | 0.385 | 0.518 | 0.371 | 0.952 | 0.454 | 0.446 | 1.01 | 0.404 | 0.607 | 0.408 | 1.06 | 0.775 | 0.613
EVQKDYEHLFK [PAM16_Y77_N76D] | 0.885 | 0.511 | 0.525 | 0.498 | 0.582 | 0.421 | 0.804 | 0.478 | 0.514 | 0.71 | 0.462 | 0.62 | 0.491 | 0.805 | 0.662 | 0.592
EVVGRYSLHNA [MLH1_Y183_V185L] | 0.478 | 0.421 | 0.368 | 0.502 | 0.424 | 0.33 | 0.671 | 0.382 | 0.411 | 0.445 | 0.405 | 0.371 | 0.364 | 0.802 | 0.767 | 0.488
EWQQTYTFDSG [JUP_Y20_YF] | 1.06 | 0.494 | 0.485 | 0.965 | 1.02 | 0.425 | 0.904 | 3.03 | 0.78 | 1.02 | 0.668 | 0.546 | 5.44 | 0.881 | 0.799 | 0.677
EYFDGYWEYSV [ITGA2B_Y265_G267E] | 4.06 | 2.02 | 3.58 | 13.8 | 12 | 1.22 | 1.72 | 5.41 | 4.33 | 5.73 | 2 | 1.54 | 6.02 | 0.876 | 0.758 | 0.465
EYHRLYEEYTR [PIK3R1_Y467_D464H] | 1.45 | 3.87 | 5.18 | 2.52 | 1.61 | 2.31 | 0.898 | 5.5 | 5.42 | 0.978 | 2.48 | 0.653 | 4.19 | 0.96 | 0.718 | 1.86
FAASSYSFSDL [EMD_Y59_S54F] | 0.813 | 0.643 | 0.517 | 0.548 | 0.663 | 0.547 | 1.15 | 0.558 | 0.64 | 0.849 | 0.78 | 0.707 | 0.639 | 0.864 | 0.631 | 0.825
FADGVYLALEE [DUOX2_Y70_Q71L_YF] | 1.63 | 1.19 | 0.991 | 0.881 | 1.02 | 0.584 | 1.04 | 2.15 | 1.51 | 0.968 | 0.641 | 0.647 | 2.47 | 0.849 | 0.623 | 0.558
FADTAYNYRHG [PAH_Y166_I164T] | 0.672 | 0.533 | 0.362 | 0.899 | 0.601 | 0.552 | 0.831 | 0.456 | 0.514 | 0.509 | 0.35 | 0.46 | 0.449 | 0.723 | 0.973 | 0.421
FAKTQYPDIFA [CRX_Y63_V66I_YF] | 0.667 | 0.426 | 0.373 | 0.378 | 0.528 | 0.517 | 0.922 | 0.434 | 0.387 | 0.483 | 0.489 | 0.542 | 0.415 | 0.849 | 0.529 | 0.456
FASALYGQRRS [FGF11_Y162_R163G_YF] | 0.724 | 0.343 | 0.415 | 0.364 | 0.442 | 0.505 | 0.682 | 0.444 | 0.903 | 0.616 | 0.516 | 0.47 | 0.641 | 0.659 | 0.457 | 0.511
FDAHIYEGRVI [PRKCD_Y64] | 0.929 | 0.544 | 0.609 | 0.546 | 0.574 | 2.12 | 0.91 | 1.68 | 4.25 | 0.639 | 0.47 | 0.636 | 2.08 | 0.913 | 0.654 | 0.713

Sequence | phosphorylation enrichment (AncSZ) | phosphorylation enrichment (EPHB1) | phosphorylation enrichment (EPHB2) | phosphorylation enrichment (FGFR1) | phosphorylation enrichment (FGFR3) | phosphorylation enrichment (Fer (mouse)) | phosphorylation enrichment (Fes) | phosphorylation enrichment (Fyn) | phosphorylation enrichment (Hck) | phosphorylation enrichment (Jak2) | phosphorylation enrichment (MERTK) | phosphorylation enrichment (c-Abl (mouse)) | phosphorylation enrichment (c-Src) | SH2 binding enrichment (Grb2 SH2) | SH2 binding enrichment (SHP2-C SH2) | SH2 binding enrichment (c-Src SH2)
FDRREYSRFEK [ITGB7_Y758_YF] | 0.602 | 0.415 | 0.519 | 0.452 | 0.526 | 0.392 | 0.666 | 0.331 | 0.454 | 0.577 | 0.47 | 0.596 | 0.411 | 0.793 | 0.633 | 0.513
FEEDSYSHIMA [FDPS_Y388_YF] | 1.33 | 0.551 | 0.593 | 1.01 | 1.01 | 1.07 | 1.23 | 0.634 | 0.972 | 1.06 | 0.458 | 0.671 | 0.721 | 0.718 | 0.479 | 0.864
FEEDSYSHVMA [FDPS_Y388_I391V_YF] | 1.57 | 0.696 | 0.482 | 0.934 | 0.901 | 1.42 | 1.3 | 0.511 | 0.646 | 1.14 | 0.631 | 0.731 | 0.779 | 0.983 | 0.724 | 0.584
FEEDSYVERSQ [RET_Y905_K907E_YF] | 1.18 | 0.67 | 0.621 | 0.508 | 0.731 | 0.575 | 1.26 | 0.504 | 0.457 | 1.08 | 0.415 | 0.866 | 0.526 | 0.992 | 0.618 | 0.512
FEELVYETVRV [FSHB_Y76_K72E] | 3.82 | 4.38 | 5.12 | 2.21 | 1.82 | 12.8 | 6.25 | 7.8 | 6.88 | 0.843 | 4.67 | 11.5 | 5.16 | 0.884 | 0.702 | 0.514
FEHVGYTTLNR [CHN1_Y148_YF] | 0.654 | 0.393 | 0.395 | 0.426 | 0.458 | 0.445 | 0.805 | 0.448 | 0.602 | 0.527 | 0.406 | 0.68 | 0.466 | 0.917 | 18.8 | 5.21
FEKFLYFLPAS [DYNC2H1_Y346_H341Y_YF] | 1.5 | 0.8 | 0.735 | 0.474 | 0.852 | 0.55 | 1.48 | 0.733 | 0.884 | 2.67 | 1.95 | 0.896 | 0.76 | 0.84 | 0.759 | 0.544
FEREQYADRTR [RBM4_Y355_A359T_YF] | 0.625 | 0.398 | 0.478 | 0.46 | 0.429 | 0.436 | 0.622 | 0.412 | 0.459 | 0.582 | 0.426 | 0.588 | 0.419 | 0.859 | 0.694 | 0.539
FFDANCDGKEF [MAPRE2_Y162_Y162C_YF] | 1.26 | 0.573 | 0.62 | 0.455 | 0.662 | 0.521 | 1.27 | 0.973 | 0.58 | 1.11 | 0.472 | 1.09 | 0.537 | 0.687 | 3.8 | 0.54
FFIMMYTGSNV [DNAJC13_Y1131] | 1.3 | 0.681 | 0.664 | 0.619 | 0.782 | 0.589 | 1.29 | 0.433 | 0.505 | 1.06 | 0.477 | 0.779 | 0.4 | 0.9 | 0.732 | 0.508
FFIMMYTGSSV [DNAJC13_Y1131_N1135S] | 0.97 | 0.62 | 0.468 | 0.366 | 0.533 | 0.456 | 1.07 | 0.316 | 0.438 | 0.824 | 0.325 | 0.743 | 0.342 | 0.703 | 0.851 | 0.455
FFRDGYMPRQF [GSS_Y270_YF] | 0.634 | 0.415 | 0.4 | 0.597 | 0.55 | 0.407 | 0.82 | 0.393 | 0.455 | 0.592 | 0.493 | 0.482 | 0.345 | 1.02 | 0.784 | 0.509
FFSSEYHCVGG [CTSC_Y345_Y347C_YF] | 2.38 | 2.37 | 2.15 | 7.57 | 4.98 | 0.545 | 1.17 | 1.58 | 1.66 | 1.08 | 0.651 | 1.88 | 2.1 | 0.87 | 0.8 | 0.709
FGGTVYHSPVS [PRC1_Y511] | 0.894 | 0.535 | 0.418 | 0.473 | 0.525 | 0.434 | 0.687 | 0.588 | 0.851 | 0.555 | 0.444 | 3.96 | 0.771 | 0.851 | 2.81 | 1.72
FGHTFYNQAIM [MCCC2_Y196_R193H] | 0.715 | 0.404 | 0.447 | 0.555 | 0.556 | 0.461 | 0.945 | 0.465 | 0.41 | 0.856 | 0.445 | 0.527 | 0.455 | 1.18 | 1.01 | 0.735
FGISGYLVDSV [MAP2K3_Y214] | 0.982 | 0.377 | 0.501 | 0.478 | 0.631 | 0.529 | 1.2 | 0.467 | 0.471 | 0.97 | 0.459 | 0.722 | 0.504 | 0.949 | 0.883 | 0.656
